Measured values reported in PMC3519878.

Assay: SEC; HiLoad 16/60 Superdex 75 pg; protein purified by Ni2+-NTA injected at 0.5 mM

Row | Substance | area of the peak at 63 min (elutes as a dimer would), percent of monomer peak area
1 | mClavGR2 | 6.7% vs. 25.8% of monomer peak area
2 | mMaple | 6.7% vs. 25.8% of monomer peak area
